Patent KR20160086217A (dated 2016)

Key:
c-Met [1] = molecular target: T1, c-Met (UniProt P08581 25-932, limits assumed); experiment: SPR, Biacore T100; antibody (from GSKO GLUD1 301 GS cells) captured on Human Fab binder on CM5 chip, c-Met as analyte 25 to 0.78 nmol, 1:1 kinetic fit
T1 construct: also called 항원인 c-Met

c-Met [2] = molecular target: T1, c-Met; experiment: SPR, Biacore T100; antibody (from GSKO 301 GS cells) captured on Human Fab binder on CM5 chip, c-Met as analyte 25 to 0.78 nmol, 1:1 kinetic fit
c-Met [3] = molecular target: T1, c-Met; experiment: SPR, Biacore T100; antibody (from GSKO GLUD1 301 GS cells) captured on Human Fab binder on CM5 chip, c-Met as analyte, 1:1 kinetic fit; rounded form of the value in r2
c-Met [4] = molecular target: T1, c-Met; experiment: SPR, Biacore T100; antibody (from GSKO 301 GS cells) captured on Human Fab binder on CM5 chip, c-Met as analyte, 1:1 kinetic fit; rounded form of the value in r2

T1 sequence (P08581 25-932 limits assumed): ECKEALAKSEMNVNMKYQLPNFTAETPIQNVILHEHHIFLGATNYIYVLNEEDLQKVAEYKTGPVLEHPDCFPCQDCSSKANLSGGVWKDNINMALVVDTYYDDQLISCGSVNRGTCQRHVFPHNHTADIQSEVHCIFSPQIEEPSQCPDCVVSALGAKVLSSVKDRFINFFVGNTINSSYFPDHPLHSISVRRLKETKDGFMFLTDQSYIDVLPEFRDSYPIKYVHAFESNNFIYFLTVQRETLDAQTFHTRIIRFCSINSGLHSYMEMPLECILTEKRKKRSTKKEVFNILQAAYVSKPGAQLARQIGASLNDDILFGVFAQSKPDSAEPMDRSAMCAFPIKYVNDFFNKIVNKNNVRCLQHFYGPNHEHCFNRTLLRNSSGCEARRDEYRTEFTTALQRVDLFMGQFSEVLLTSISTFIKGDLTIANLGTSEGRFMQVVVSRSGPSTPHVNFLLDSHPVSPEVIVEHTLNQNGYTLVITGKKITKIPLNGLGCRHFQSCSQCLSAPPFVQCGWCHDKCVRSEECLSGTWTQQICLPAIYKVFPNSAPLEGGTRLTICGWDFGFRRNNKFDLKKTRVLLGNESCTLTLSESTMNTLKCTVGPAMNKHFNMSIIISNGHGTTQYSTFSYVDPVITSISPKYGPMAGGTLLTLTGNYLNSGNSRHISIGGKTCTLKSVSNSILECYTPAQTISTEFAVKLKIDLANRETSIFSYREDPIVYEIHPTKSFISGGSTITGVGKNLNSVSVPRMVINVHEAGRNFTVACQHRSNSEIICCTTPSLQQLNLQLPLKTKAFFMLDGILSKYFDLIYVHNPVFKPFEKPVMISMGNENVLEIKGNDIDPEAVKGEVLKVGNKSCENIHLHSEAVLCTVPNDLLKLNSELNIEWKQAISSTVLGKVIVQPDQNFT

B1: 항 c-Met 항체 L3-1Y/IgG2 (antibody, V domains shown)
VH: EVQLVESGGGLVQPGGSLRLSCAASGFTFTDYYMSWVRQAPGKGLEWLGFIRNKANGYTTEYSASVKGRFTISRDNSKNTLYLQMNSLRAEDTAVYYCARDNWFAYWGQGTLVTVSS
VL: DIQMTQSPSSLSASVGDRVTITCKSSQSLLASGNQNNYLAWYQQKPGKAPKMLIIWASTRVSGVPSRFSGSGSGTDFTLTISSLQPEDFATYYCQQSYSRPYTFGQGTKVEIKR
notes: also called S301-12A37 standard; S301-12A37
With B1 the Kd (c-Met [1]) was 0.0926 nM, the Kd (c-Met [2]) was 0.0573 nM and the Kd (c-Met [3]) was 0.09 nM. The Kd (c-Met [4]) was 0.06 nM.
